Data as given in US7304034.

Assays:
[1] = target: RAGE on RAW 264.7 cells (mouse (murine RAW 264.7 cells)) (UniProt Q62151); test: cell-based or functional assay
[2] = target: cell surface binding sites for HMGB1 on RAW 264.7 cells; test: 125I-HMGB1 cell surface binding to RAW 264.7 cells, 2 hours at 4 C, no competitor
[3] = target: cell surface binding sites for HMGB1 on RAW 264.7 cells; test: cell-based or functional assay

RAGE on RAW 264.7 cells (mouse (murine RAW 264.7 cells)), sequence (Q62151 23-402): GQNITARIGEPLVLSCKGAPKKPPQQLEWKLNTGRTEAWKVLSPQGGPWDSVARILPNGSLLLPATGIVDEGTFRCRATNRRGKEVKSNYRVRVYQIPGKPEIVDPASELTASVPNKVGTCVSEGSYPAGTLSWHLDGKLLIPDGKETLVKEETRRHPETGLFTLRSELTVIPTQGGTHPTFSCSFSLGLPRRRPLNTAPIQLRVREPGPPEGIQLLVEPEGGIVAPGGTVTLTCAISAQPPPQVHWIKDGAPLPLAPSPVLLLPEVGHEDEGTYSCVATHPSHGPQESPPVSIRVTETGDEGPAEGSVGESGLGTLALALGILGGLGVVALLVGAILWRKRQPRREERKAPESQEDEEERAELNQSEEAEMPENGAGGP

A maximum inhibition of HMG-1 signaling (TNF release from RAW 264.7 cells) by anti-RAGE antibody [1] of 40% and a total counts obtained in the absence of unlabeled HMGB1 proteins (CPM/well) [2] of 2.38e+06 CPM/well were found for “Recombinant full length human HMGB1 (wild type HMGB1) (from UniProt A9RA84 1-215) (ligand)” in this work.

An inhibition of HMGB1 (1 µg/ml) induced TNF release from RAW 264.7 cells, apparent EC50 [3] of 7.5 µg/mL was found for “HMGB1 A box (Amino terminus + A Box mutant of human HMGB1) (from UniProt A9RA84 1-85)” in this work.
